The values that follow come from patent publication US20110192416A1.

The target in the experiment is human hair (keratin-containing material) (human). Kind of experiment: Hair adherence test: His-tagged protein incubated with cut human hair, detected with anti-poly-histidine peroxidase conjugate and TMB; buffer background 0.05.

As to “comparable protein YaaD of B. subtilis with a His-tag (from UniProt P37527 1-294)”, the absorption at 405 nm stood at 0.12 A405.
